Data published in US20240342704A1 (BERKELEY LIGHTS, published 2024).

Molecular target: T1, HLA-A*02:01 MHC Class I complex (biotinylated) (human, biotinylated)
T1 construct: The MHC molecule as the partner of the peptide in the groove; It was captured on streptavidin DynaBeads; also called pHLA; pMHC
Assay: pMHC on streptavidin beads held in T cell culture media at 37 C for 0-48 h; W6/32-APC MFI by flow cytometry fitted to an exponential decay
Procedure: To wells of a 96-well, round-bottom microplate, 0.2 mL of T Cell Culture Media (Advanced RPMI, 10% Human AB Serum, 1 mM GlutaMax) was added and equilibrated to 37° C. in a standard tissue culture incubator. To three wells each, four microliters of each pHLA-beads was added to a well. The process of adding beads to wells was repeated at time intervals resulting in beads that were held in the media at 37° C. for 48, 32, 24, 16, 8, 4, 2, and 1 hr. The plate was centrifuged at 400 g for 5 minutes, and the media removed by flicking the plate. A sample of beads held at 4° C. for the duration of the time course was then added to three wells to create the 0 hr time point.
An APC-conjugated, conformationally sensitive antibody which only recognizes pMHC molecules in the folded, complex conformation (Clone W6/32, Biolegend) was then added to each well. The antibody was diluted 50-fold from the manufacturer stock into Assay Buffer, and 0.05 mL of antibody mixture was added to each well. […]
Antibody binding to the beads was then detected on a FACSCelesta with High-Throughput Sampler (BD Biosciences). […] Approximately 25,000 bead events were recorded for each sample. The Median Fluorescence Intensity (MFI) in the APC channel for the pHLA-beads in each sample was then recorded. […] The half-lives for the pHLA complexes were then calculated from the fitted decay constant.

| Binder | half-life |
| --- | --- |
| SLYSYFQKV (Synthetic 9-mer peptide, dissolved in DMSO and diluted in PBS for the exchange reaction; also called Immunogenic SLC45A2-derived peptide; SLC45A2 antigen) [SLC45A2-derived peptide antigen SLYSYFQKV (SEQ ID NO: 5)] | ~17 h |
| SLLPIMWQLY (Synthetic 10-mer peptide; also called Non-Immunogenic TCL1-derived peptide) [TCL1-derived peptide antigen SLLPIMWQLY (SEQ ID NO: 6)] | ~0.5 h |
